In the supplement of paper PMC10567573:

B1: GLTSCR2 (parent)
chain: YNPSFEDHQTLLSAAHEVELQRQK

Variants of: B1
Assay: protein stability index of a GFP-peptide fusion (GPS, HEK-293T) (PSI 1-6); higher = more stable
Details: c terminus: a fixed tail appended
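Also: lentivirally expressed fusions sorted by FACS into six bins by GFP to DsRed ratio, PSI derived from sequencing read proportions per bin multiplied by bin number.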

Protein stability index: each site, then its substitutions
S13: D 3.88, F 2.66, C 3.25, I 2.45, R 2.56, Y 2.75, E 3.2, A 3.21, T 4.17, Q 3.66, K 2.58, W 1.51, H 3.47, P 4.2, L 2.9, G 3.29, N 3.66, V 3.2, M 3.08
E17: F 2.45, D 3.85, W 2.73, C 2.88, Y 2.51, G 2.94, V 2.83, L 2.96, M 3.29, S 3.43, Q 2.94, H 2.78, I 3.03, A 3.15, N 3.33, P 3.33, K 3.43, T 3.36, R 3.4
R22: E 4.69, F 3.43, V 3.7, D 4.84, P 4.21, L 3.18, I 2.91, G 3.86, T 3.96, Q 4.24, Y 3.16, S 3.9, H 3.99, K 4.13, A 4.18, C 3.35, M 3.4, W 2.71, N 4.32
H16: G 4.16, D 4.43, T 3.93, A 3.64, L 3.22, F 2.91, W 2.51, N 3.92, S 4.45, P 4.19, R 3.2, M 3.63, Y 3.34, E 4.38, Q 3.48, C 3.28, K 3.51, I 2.53, V 2.97
T10: A 3.39, V 3.53, E 4.44, C 3.19, G 3.87, P 3.7, F 2.61, L 2.71, Q 3.47, S 3.94, D 4.32, I 3.05, K 2.35, Y 3.03, W 2.65, H 3.37, M 2.87, N 4.01, R 2.59
L12: K 4.45, Q 4.2, E 5.25, T 4.62, V 4.15, F 2.35, I 3.86, A 4.41, C 4.02, Y 3.63, H 4.61, W 1.58, G 4.23, P 5.16, R 4.44, M 4.29, S 4.79, D 5.35, N 4.54
L20: D 4.29, Q 3.87, K 4.44, F 3.57, Y 3.74, G 4.16, R 3.89, N 4.09, M 3.67, W 3.19, C 3.99, E 4.54, P 4.46, T 4.39, S 4.26, V 3.63, A 4.04, H 4.51, I 3.71
D7: G 4.17, K 3.62, F 2.81, L 3.35, N 3.98, Y 3.52, P 4.13, V 2.92, H 3.67, E 3.46, C 4.08, M 3.23, I 3.21, T 3.55, S 4.11, Q 4.27, R 3.7, A 3.72, W 1.92
K24: A 3.39, C 3.22, D 4.28
V18: Q 3.76, I 3.67, A 4, P 4.41, R 3.43, M 3.65, H 3.28, L 3.69, K 4.14, W 2.54, N 3.8, S 3.65, C 3.65, G 3.79, E 4.44, F 3.1, T 4.24, Y 3.49, D 4.13
L11: Y 3.25, A 4.7, C 4.26, M 4.19, F 2.81, H 4.57, R 4.19, N 4.96, S 4.95, D 5.01, E 5.13, T 5.29, V 3.98, G 4.58, K 4.71, W 2.38, Q 4.88, P 4.92, I 2.96
Q21: P 4.07, I 3.26, R 3.95, F 3.06, M 3.06, H 2.96, K 3.17, A 3.34, G 3.26, T 3.44, D 4.16, S 3.96, C 3.61, L 2.96, V 3.28, N 3.71, W 3.06, Y 3.18, E 3.42
A14: E 4.63, F 2.53, V 3.41, D 4.29, I 3.02, N 4.04, W 2.51, G 3.52, P 4.08, S 4.2, R 3.48, T 4.04, Q 3.86, Y 2.65, C 2.53, L 3.09, M 3.62, K 3.92, H 3.64
E6: Y 2.67, R 2.57, Q 2.58, S 3.15, V 3, T 3.09, W 2.75, P 3.76
A15: R 3.56, F 2.47, H 3.56, C 3.3, Y 3.48, E 4.53, P 3.61, I 2.29, T 3.75, Q 3.82, N 3.85, L 2, W 2.3, M 2.93, K 3.96, S 4.07, D 4.54, G 4.28, V 2.53
H8: S 4.2, V 2.33, D 4.81, R 3.66, G 4.05, W 1.88, Q 3.84, K 3.62, Y 1.54, T 3.11, A 3.79, E 4.4, I 2.53, L 2.22, M 2.72, C 2.67, P 3.86, F 1.99, N 4.29
Q9: A 3.79, H 3.68, R 3.13, G 4.42, P 4.08, E 4.45, N 4.1, D 4.5, L 3.11, I 2.6, M 2.72, S 4.09, K 3.12, V 3.24, C 3.06, T 3.56, W 2.2, F 2.45, Y 3.36
E19: N 3.36, Q 3.36, W 2.75, Y 2.42, C 3.33, V 2.67, L 2.28, K 3.25, D 4.05, M 3.01, R 2.69, F 2.49, G 3.8, A 2.63, P 3.86, T 3.5, H 3.39, S 3.39, I 2.85
Q23: A 3.75, P 3.96, L 3.21, M 3.4, N 3.45, K 3.75, D 4.23, E 4.13, I 3.23, H 3.33, V 3.57, W 2.95, G 4.12, F 2.56, Y 3.19, S 3.63, T 3.68, R 3.5, C 3.06
